Laboratory results reported in patent publication US20220204602A1 (University of Pennsylvania, published 2022).

B1: anti-C5 mAb FMEH-IgG4PLA (antibody)
heavy: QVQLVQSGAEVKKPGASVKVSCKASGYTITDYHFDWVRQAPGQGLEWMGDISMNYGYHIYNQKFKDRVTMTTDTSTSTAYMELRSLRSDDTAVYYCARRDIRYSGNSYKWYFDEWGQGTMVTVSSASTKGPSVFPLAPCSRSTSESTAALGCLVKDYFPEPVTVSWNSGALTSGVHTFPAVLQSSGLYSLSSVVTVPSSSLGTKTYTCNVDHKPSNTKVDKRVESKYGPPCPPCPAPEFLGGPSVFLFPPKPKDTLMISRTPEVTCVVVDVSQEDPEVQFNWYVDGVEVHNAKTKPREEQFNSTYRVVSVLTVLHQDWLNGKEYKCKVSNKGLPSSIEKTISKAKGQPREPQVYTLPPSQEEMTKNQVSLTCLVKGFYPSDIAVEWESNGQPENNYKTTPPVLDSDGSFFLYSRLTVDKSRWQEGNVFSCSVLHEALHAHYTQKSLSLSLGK
light: DIQLTQSPSFLSASVGDRVTITCRTSKSISKHLAWYQQKPGKAPKLLIYSGSTLQSGVPSRFSGSGSGTEFTLTISSLQPEDFATYYCQQHNEYPYTFGQGTKLEIK
notes: also called FMEH PLA; FMEH-PLA; not shown: human light chain constant region
B2: Cyno FcRn (receptor, Cynomolgus)
chain 1: AESHLSLLYHLTAVSSPAPGTPAFWVSGWLGPQQYLSYDSLRGQAEPCGAWVWENQVSWYWEKETTDLRIKEKLFLEAFKALGGKGPYTLQGLLGCELSPDNTSVPTAKFALNGEEFMNFDLKQGTWGGDWPEALAISQRWQQQDKAANKELTFLLFSCPHRLREHLERGRGNLEWKEPPSMRLKARPGNPGFSVLTCSAFSFYPPELQLRFLRNGMAAGTGQGDFGPNSDGSFHASSSLTVKSGDEHHYCCIVQHAGLAQPLRVELETPAKSS
chain 2: IQRTPKIQVYSRHPPENGKPNFLNCYVSGFHPSDIEVDLLKNGEKMGKVEHSDLSFSKDWSFYLLYYTEFTPNEKDEYACRVNHVTLSGPRTVKWDRDM
notes: also called Cynomolgus FcRn; purified Cyno FcRn

Assays:
human FcRn = biological target: T1, human FcRn (human, UniProt P55899 24-297; P61769 21-119, limits assumed); test: SPR (Biacore-3000), human FcRn amine-coupled on CM5 chip (280 RU), antibody as analyte, pH 6.0, bivalent binding model
T1 construct: also called purified human FcRn
Experimental: Biacore analysis was performed on a Biacore-3000 instrument. The chip was regenerated between each binding using 7.4 pH Buffer.
The carboxylated dextran matrix of a CM5 sensor chip was used to couple the purified human or Cyno FcRn, by amine coupling chemistry to obtain 280 RU or 200 RU surface density, respectively. […] The data were analyzed by the BIA evaluation software 3.2 assuming bivalent binding model.

Cyno FcRn = biological target: B2; test: SPR (Biacore-3000), Cyno FcRn amine-coupled on CM5 chip (200 RU), antibody as analyte, pH 6.0, bivalent binding model
Experimental: Purified Cyno FcRn was coupled onto CM5 chip using the amine coupling method(200RU). Biacore analysis was performed on a Biacore-3000 instrument. The chip was regenerated between each binding using 7.4 pH Buffer.
Affinity analysis of FMEH-IgG4PLA and FMEH-IgG4PLA-FH1-5 to human or Cynomolgus FcRn: Surface Plasmon resonance analysis was used to measure the association and dissociation rate constant for binding of FMEH-IgG4PLA and FMEH-IgG4PLA-FH1-5 to immobilized human or Cyno FcRn, using BIAcore 3000 instrument (Biacore AB, Uppsala, Sweden) and all Biacore experiments were performed at 25° C. The carboxylated dextran matrix of a CM5 sensor chip was used to couple the purified human or Cyno FcRn, by amine coupling chemistry to obtain 280 RU or 200 RU surface density, respectively. […] The data were analyzed by the BIA evaluation software 3.2 assuming bivalent binding model.

[1] = biological target: T2, anti-C5 mAb/FH SCR1-5 fusion protein FMEH-IgG4PLA-FH1-5 (human, UniProt P08603 19-322, limits assumed); test: SPR (Biacore-3000), Cyno FcRn amine-coupled on CM5 chip (200 RU), fusion protein as analyte, pH 6.0, bivalent binding model
T2 construct: domain: SCR 1-5; also called FMEH-FH1-5; FMEH-IgG4PLA-FH SCR1-5; not shown: human light chain constant region
T2 sequence (P08603 other isoform, or with tags, fused parts or gaps limits assumed): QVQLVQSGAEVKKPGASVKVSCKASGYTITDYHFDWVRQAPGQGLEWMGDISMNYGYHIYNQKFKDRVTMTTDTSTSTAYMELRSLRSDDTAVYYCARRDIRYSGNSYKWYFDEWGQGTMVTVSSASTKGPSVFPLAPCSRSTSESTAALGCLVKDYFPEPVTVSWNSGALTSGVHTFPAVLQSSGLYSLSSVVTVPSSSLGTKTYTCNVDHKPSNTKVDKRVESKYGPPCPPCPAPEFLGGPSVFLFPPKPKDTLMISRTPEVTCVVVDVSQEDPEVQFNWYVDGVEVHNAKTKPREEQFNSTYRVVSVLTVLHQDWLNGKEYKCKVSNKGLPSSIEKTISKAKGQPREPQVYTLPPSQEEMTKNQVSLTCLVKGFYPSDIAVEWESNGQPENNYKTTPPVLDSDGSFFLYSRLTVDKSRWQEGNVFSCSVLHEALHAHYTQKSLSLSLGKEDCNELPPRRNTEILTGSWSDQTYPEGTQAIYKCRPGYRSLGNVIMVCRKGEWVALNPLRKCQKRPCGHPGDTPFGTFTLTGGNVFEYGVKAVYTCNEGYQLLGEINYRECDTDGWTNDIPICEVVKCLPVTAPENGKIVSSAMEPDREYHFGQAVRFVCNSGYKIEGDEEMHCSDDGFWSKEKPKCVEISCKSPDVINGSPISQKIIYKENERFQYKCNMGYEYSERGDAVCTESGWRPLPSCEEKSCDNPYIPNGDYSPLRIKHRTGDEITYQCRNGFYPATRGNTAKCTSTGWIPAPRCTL

| Kd (human FcRn) [nM] | Kd (Cyno FcRn) [nM] | Kd [1] [nM] | Binder |
| --- | --- | --- | --- |
| 6.47 | 14 | – | B1 |
| – | – | 39.1 | B2 |
